In article PMC7567884:

What follows are sequences tested against T1, His-LexA (Synechocystis sp. PCC 6803) (UniProt P73722) (assay: EMSA). Conditions: DIG Gel Shift Kit 2nd generation (Roche), as in Kizawa et al. (ref 9); 6% polyacrylamide gel; buffer, salt, pH and temperature not given.
T1 sequence: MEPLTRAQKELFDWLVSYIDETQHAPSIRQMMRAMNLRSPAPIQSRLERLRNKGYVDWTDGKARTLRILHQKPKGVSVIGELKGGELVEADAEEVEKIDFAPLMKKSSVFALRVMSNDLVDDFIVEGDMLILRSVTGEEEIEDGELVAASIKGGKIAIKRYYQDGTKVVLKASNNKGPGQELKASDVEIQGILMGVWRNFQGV

binding, binds:
GTGGGAAAGTTCCACCTATACCATGCCTTGAAAATTGGTATGGGTCAAATCAGATAGTTCTTTTTGACTACTAATTTTGTTGCTAGCAGCGTTGTCAATCCCATCGCTCTGGTCTGGGATGCAAATGGCAGGAAAATTCTGCTCCCCTTGGGGGAAACGAGTTACGATGGGGGCGACGTTTGCTTTGTTTGCGACATAAT (double strand) [PggtB]
TAACTCGTCACACCCCATGTGGGCAATGGTATCGTATTCTGCCCAGGTTTCCACCCCTTCAGCCGTTACTCGCAACTCTAGTTCGTGGGCTAGGTTGATAATTGAGGCGGTGATAGTTTTATTCTTGGCGTTTTTGTCAATGTGACGCACAAAGCTTTGATCTATTTTCAGCACATCAAAGGGGAACTGCTGCAGATAAC (double strand) [PggpP]
TGCAATTTCCTCCTGTCCTCAGGGGACAAACTATATTAAGAAAGTTTACGGGATTATGTTGCCCGGGGAGAATTTGTCCGTGGGGGGTTTACCGACCGATCGCCGGTGAGAAGTACCAGGATAGCTTTATAAAGTTTTGTTACAATGGCAGAAGAAATTCTCAGAAACCCAGCC (double strand) [PnblB]
TGGGATCAAACAACAAGAAAAAATCAATTTACCCTGCCCATGGCAATAGTTTTAAGGTTAACAAAAAAAATAGAATTTACCGCAATCGACGGGTAAATTTCCAGAGGATACCCCCAACTCCAGAAGCAGAAATCTTGCCAGAAAAGCTTTTTCTGTTACTATACTTAACAAGTAACTACTTTTTCC (double strand) [PggpS]
TGGGCAGGGTAAATTGATTTTTTCTTGTTGTTTGATCCCATTTTCCAGTCTTTTTGACTTCCATTCAGTCAGGATAATTTTTGCAGTTTTTTTATGGAGTTTTGATAACATTGAGCTTTGCCCCCGGCGATCGCCTAGGGATAAACAATAAACGTGTGAACTAATATGCCTGGATTTATCCCTGGATTGACATTGTTTTTGCC (double strand) [PgghA]
TTTTTCACAACCTAAGACTTCCTTCCAAAAATCCATAGGGCGGTGGAAGCTTAGCTATTTTTACCATTTTGTTTTGCCACTCAAATATTTACTTAAGGTGAGGTAAAAACTCATCTTTTTTTTACTAAAAATTGCGGCTAGAAATGTAATTTCGGCAATCCCCCCACCTTCTTTCCTGAAAACCGAATCTAACCTGGAAGGGGAAATTTTAAGATAGAACCATTCAAGGGTAATCAATTCCTTCCACACATCAGGAGTTAACATT (double strand) [PhspA]
